Laboratory results: patent US5747321

Target: fused protein β-gal97S4DhCNP-22R5-3 (human) (UniProt P23582)

natural V8 protease (Staphylococcus aureus V8 protease) (from UniProt P0C1U8) (enzyme)
cleavage efficiency (proportion of fused protein cleaved): 60%
